In patent publication US20160185853A1 (UNIVERSITY OF SOUTHERN CALIFORNIA, published 2016):
Values belong to the binder of their own block, whether it stands above or below them.

What was measured:
HSP70 = target: T1, HSP70 (UniProt P0DMV8 2-641); experiment: Western blot of MCF7 whole cell lysates
T1 construct: also called GRP78's closest paralogue

mouse GRP78 = target: T2, mouse GRP78 (mouse, UniProt P20029 20-655); experiment: immunoblot of MEF lysates; band absent after deletion of Grp78
T2 construct: Denatured protein on an immunoblot; also called GRP78 protein band in mouse embryo fibroblast (MEF) lysates

human GRP78 = target: T3, human GRP78 (human, UniProt P11021 19-654); experiment: Scatchard assay
T3 construct: also called BiP/HSPA5; antigen

[1] = target: T4, Flag tagged GRP78 (without KDEL) (human, UniProt P11021 19-650, surface biotinylated with Sulfo-NHS-LC-Biotin); experiment: surface biotinylation, avidin purification, anti-Flag immunoprecipitation, Western blot (293T cells)
T4 construct: also called surface GRP78 (overexpressed); not shown: Flag tag

[2] = target: T5, GRP78-His (human GRP78 amino acids 1-650, without KDEL motif, hexahistidine tag on C-terminus) (human, UniProt P11021 19-650); experiment: competition ELISA on GRP78-His; dilution series of unlabelled antibody against a fixed concentration of biotinylated murine MAb159 [panel A]
T5 construct: also called GRP78-His polypeptide

binding result (mouse GRP78): binds | Kd (human GRP78): 1.7 nM
B1: MAb159 (murine monoclonal antibody) (antibody, V domains shown)
VH: QAQLQQPGAELVKPGASVRLSCKASGYTFTSYWMHWVKQRPGQGLEWIGEINPGNGRTNYNEKFKRKATLTVDKSSSTAYMQLNSLTSEDSAVYYCATLYYYDGTYDYWGQGTTLTVSS
VL: DIVMTQSHKFMSTSVGDRVSVTCKASQNVGTDVAWYQQKPGQSPKALIYWASNRFTGVPDRFTGSGSGTDFTLTINNVQSEDLVDYFCQQYSSSPWTFGGGTKLEIK
notes: Whole murine monoclonal antibody from a hybridoma, purified on protein G; also called murine MAb159; parental murine antibody
binding result (HSP70): no binding (tested: 1 µg/ml primary antibody)

binding result [1]: no binding
B2: ERK1 (enzyme, UniProt P27361 2-379, looked up)
chain: AAAAAQGGGGGEPRRTEGVGPGVPGEVEMVKGQPFDVGPRYTQLQYIGEGAYGMVSSAYDHVRKTRVAIKKISPFEHQTYCQRTLREIQILLRFRHENVIGIRDILRASTLEAMRDVYIVQDLMETDLYKLLKSQQLSNDHICYFLYQILRGLKYIHSANVLHRDLKPSNLLINTTCDLKICDFGLARIADPEHDHTGFLTEYVATRWYRAPEIMLNSKGYTKSIDIWSVGCILAEMLSNRPIFPGKHYLDQLNHILGILGSPSQEDLNCIINMKARNYLQSLPSKTKVAWAKLFPKSDSKALDLLDRMLTFNPNKRITVEEALAHPYLEQYYDPTDEPVAEEPFTFAMELDDLPKERLKELIFQETARFQPGVLEAP
notes: Printed only as ERK1/2; also called ERK1/2; Erk1/2

binding result [2]: binds
B3: humanized MAb159 (antibody, V domains shown)
VH: QAQLVQSGAEVKKPGASVKVSCKASGYTFTSYWMHWVRQAPGQGLEWIGEINPGNGRTNYNEKFKRRVTITVDKSASTAYMELSSLRSEDTAVYYCATLYYYDGTYDYWGQGTTVTVSS
VL: DIVMTQSPSFLSASVGDRVTITCKASQNVGTDVAWYQQKPGKAPKALIYWASNRFTGVPDRFTGSGSGTDFTLTISSLQSEDVADYFCQQYSSSPWTFGGGTKVEIK
notes: It carries a human Fc (detected with a human Fc specific antibody)
